Test results reported in patent US11168316B2, “Chimeric clotting factors” (Bioverativ Therapeutics Inc., priority 2012, dated 2021).
Ends that are not written are not given here.

Biological target: T1, thrombin (Homo sapiens, UniProt P00734)
T1 construct: followed by 50 μL of thrombin (278 nM, 10 μg/mL)
Assay: Cleavage of peptides by 1.4 nM thrombin (HPLC)
Assay type: biochemical
Details: 50 μM peptide, 37° C.
Experimental: FIG. 19 depicts the cleavage of Compounds 1, 4, 5 and 6 by 1.4 nM thrombin. Compounds 1, 4 and 5 incorporate PABC and different thrombin-cleavable substrates. 50 μL of peptide (1 mM) in water was added to 900 μL PBS. The mixture was incubated at 37° C. for 30 min, followed by 50 μL of thrombin (27.8 nM, 1 μg/mL), giving the following approximate initial concentrations: thrombin=1.4 nM, peptide=50 μM. The mixture was incubated at 37° C. Aliquots (95 μL) at various time points were quenched with 5 μL of hirudin (2 μM) and injected into the HPLC (C-18 column, CH3CN/H2O, 0 to 70% over 12 minutes, 60° C. 0.5 mL/min, λ=280 nm). The decreases of peptide peak areas were used to calculate yield.

In the case of “Ala-Leu-Val-Pro-Arg-Ile-Val-Gly-Gly-Gln-Glu-NH2 (ALVPRIVGGQE-NH2; also: PABC self-immolative linker, place not given here) [Compound 6]”, the “thrombin-mediated release of peptide IVGGQE” value is reported as “not observed”.
